From IntAct's records for PubMed 29039417

B1: Protein PTHB1 (Homo sapiens), Q3SYG4 (parent)
chain: MSLFKARDWWSTILGDKEEFDQGCLCLANVDNSGNGQDKIIVGSFMGYLRIFSPHPAKTGDGAQAEDLLLEVDLRDPVLQVEVGKFVSGTEMLHLAVLHSRKLCVYSVSGTLGNVEHGNQCQMKLMYEHNLQRTACNMTYGSFGGVKGRDLICIQSMDGMLMVFEQESYAFGRFLPGFLLPGPLAYSSRTDSFLTVSSCQQVESYKYQVLAFATDADKRQETEQQKLGSGKRLVVDWTLNIGEQALDICIVSFNQSASSVFVLGERNFFCLKDNGQIRFMKKLDWSPSCFLPYCSVSEGTINTLIGNHNNMLHIYQDVTLKWATQLPHIPVAVRVGCLHDLKGVIVTLSDDGHLQCSYLGTDPSLFQAPNVQSRELNYDELDVEMKELQKIIKDVNKSQGVWPMTEREDDLNVSVVVSPNFDSVSQATDVEVGTDLVPSVTVKVTLQNRVILQKAKLSVYVQPPLELTCDQFTFEFMTPDLTRTVSFSVYLKRSYTPSELEGNAVVSYSRPTDRNPDGIPRVIQCKFRLPLKLICLPGQPSKTASHKITIDTNKSPVSLLSLFPGFASQSDDDQVNVMGFHFLGGARITVLASKTSQRYRIQSEQFEDLWLITNELILRLQEYFEKQGVKDFACSFSGSIPLQEYFELIDHHFELRINGEKLEELLSERAVQFRAIQRRLLARFKDKTPAPLQHLDTLLDGTYKQVIALADAVEENQGNLFQSFTRLKSATHLVILLIALWQKLSADQVAILEAAFLPLQEDTQELGWEETVDAAISHLLKTCLSKSSKEQALNLNSQLNIPKDTSQLKKHITLLCDRLSKGGRLCLSTDAAAPQTMVMPGGCTTIPESDLEERSVEQDSTELFTNHRHLTAETPRPEVSPLQGVSE
partner: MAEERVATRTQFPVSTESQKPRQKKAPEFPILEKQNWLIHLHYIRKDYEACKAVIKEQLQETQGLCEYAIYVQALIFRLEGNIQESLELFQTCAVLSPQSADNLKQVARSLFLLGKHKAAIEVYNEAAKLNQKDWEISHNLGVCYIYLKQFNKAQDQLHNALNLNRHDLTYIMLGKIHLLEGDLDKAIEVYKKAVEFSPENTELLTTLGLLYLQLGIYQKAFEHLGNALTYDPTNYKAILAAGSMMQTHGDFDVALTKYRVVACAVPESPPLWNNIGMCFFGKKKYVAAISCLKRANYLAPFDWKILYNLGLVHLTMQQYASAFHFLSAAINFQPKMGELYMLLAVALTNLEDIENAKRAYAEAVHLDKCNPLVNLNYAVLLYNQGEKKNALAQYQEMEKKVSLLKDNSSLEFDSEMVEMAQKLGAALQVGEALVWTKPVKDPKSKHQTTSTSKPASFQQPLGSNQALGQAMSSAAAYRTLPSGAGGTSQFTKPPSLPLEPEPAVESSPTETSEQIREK

Variants of: B1
Details: with bbs4_human BBS4, Q96RK4

| Variant | effect of a mutation on the interaction |
| --- | --- |
| T478K | with no effect |
| T478E | with no effect |
| T478A | with no effect |
| V506K | with no effect |
| V506E | disrupting interaction strength |
| V506A | with no effect |
| G518K | with no effect |
| G518E | with no effect |
| G518A | with no effect |
| P530L | disrupting interaction strength |
| P530S | disrupting interaction strength |
| P530E | with no effect |
| P530A | with no effect |
| P530K | with no effect |
| S486E | with no effect |
| S486K | with no effect |
| S486R | disrupting interaction strength |
| S486A | with no effect |
| T482A | with no effect |
| T482K | with no effect |
| T482E | with no effect |
| Y495E | with no effect |
| Y495A | with no effect |

| Variant | effect of a mutation on the interaction |
| --- | --- |
| Y495K | with no effect |
| E499A | with no effect |
| E499K | with no effect |
| Q524K | with no effect |
| Q524A | with no effect |
| Q524E | with no effect |
| S507E | with no effect |
| S507A | with no effect |
| S507K | with no effect |
| R528K | with no effect |
| R528A | with no effect |
| R528E | with no effect |
| S488A | with no effect |
| S488E | with no effect |
| S488K | with no effect |
| K526A | with no effect |
| K526E | with no effect |
| E501K | with no effect |
| E501A | with no effect |
| F527A | with no effect |
| F527E | with no effect |
| F527K | with no effect |
| N503E | with no effect |

| Variant | effect of a mutation on the interaction |
| --- | --- |
| N503K | with no effect |
| N503A | with no effect |
| L531K | with no effect |
| L531A | with no effect |
| L531E | with no effect |
| P479E | with no effect |
| P479K | with no effect |
| P479A | with no effect |
| N515A | with no effect |
| N515C | disrupting interaction strength |
| N515E | with no effect |
| N515K | with no effect |
| P497E | with no effect |
| P497K | with no effect |
| P497A | with no effect |
| R521K | with no effect |
| R521E | with no effect |
| R521A | with no effect |
| Y490A | with no effect |
| Y490E | with no effect |
| Y490K | with no effect |
| I534A | with no effect |
| L491A | with no effect |

| Variant | effect of a mutation on the interaction |
| --- | --- |
| L491E | with no effect |
| L491K | with no effect |
| F474A | with no effect |
| F474K | with no effect |
| F474E | with no effect |
| M477A | with no effect |
| M477K | with no effect |
| M477E | with no effect |
| P516K | with no effect |
| P516A | with no effect |
| P516E | with no effect |
| T496A | with no effect |
| T496E | with no effect |
| T496K | with no effect |
| T484E | with no effect |
| T484K | with no effect |
| T484A | with no effect |
| R493E | with no effect |
| R493K | with no effect |
| R493A | with no effect |
| P511A | with no effect |
| P511K | with no effect |
| P511E | with no effect |

| Variant | effect of a mutation on the interaction |
| --- | --- |
| T473K | with no effect |
| L481K | with no effect |
| L481A | with no effect |
| L481E | with no effect |
| I519A | with no effect |
| I519K | with no effect |
| I519E | with no effect |
| K492A | with no effect |
| K492E | with no effect |
| I523K | with no effect |
| I523A | with no effect |
| I523E | with no effect |
| S494E | with no effect |
| S494A | with no effect |
| S494K | with no effect |
| V485K | with no effect |
| V485E | with no effect |
| V485A | with no effect |
| E475A | with no effect |
| E475K | with no effect |
| R514E | with no effect |
| R514K | with no effect |
| R514A | with no effect |

| Variant | effect of a mutation on the interaction |
| --- | --- |
| F476E | with no effect |
| F476A | with no effect |
| F476K | with no effect |
| D480K | with no effect |
| D480E | with no effect |
| D480A | with no effect |
| C525E | with no effect |
| C525K | with no effect |
| C525A | with no effect |
| V505A | with no effect |
| V505K | with no effect |
| V505E | with no effect |
| A504E | with no effect |
| A504K | with no effect |
| L500K | with no effect |
| L500E | with no effect |
| L500A | with no effect |
| V522K | with no effect |
| V522A | with no effect |
| V522E | with no effect |
| G502R | disrupting interaction strength |
| G502A | with no effect |
| G502K | with no effect |

| Variant | effect of a mutation on the interaction |
| --- | --- |
| G502E | with no effect |
| V489A | with no effect |
| V489E | with no effect |
| V489K | with no effect |
| R510A | with no effect |
| R510K | with no effect |
| R510E | with no effect |
| S509A | with no effect |
| S509P | disrupting interaction strength |
| S509K | with no effect |
| S509E | with no effect |
| R483K | with no effect |
| R483E | with no effect |
| R483A | with no effect |
| L529A | with no effect |
| L529K | with no effect |
| L529P | disrupting interaction strength |
| L529E | with no effect |
| F487A | with no effect |
| F487K | with no effect |
| F487S | disrupting interaction strength |
| F487E | with no effect |
| S498A | with no effect |

| Variant | effect of a mutation on the interaction |
| --- | --- |
| S498K | with no effect |
| S498E | with no effect |
| T512E | with no effect |
| T512A | with no effect |
| T512K | with no effect |
| Y508A | with no effect |
| Y508K | with no effect |
| Y508E | with no effect |
| D513E | with no effect |
| D513K | with no effect |
| D513A | with no effect |
| K532A | with no effect |
| K532E | with no effect |
| P520A | with no effect |
| P520E | with no effect |
| P520K | with no effect |
| D517E | with no effect |
| D517A | with no effect |
| D517K | with no effect |
| L533K | with no effect |
| L533E | with no effect |
| L533A | with no effect |
